Test results: patent US20170224620A1 (Pfizer, published 2017)
Bridges are numbered along the chain shown (N, C = ends). Where no end group is shown, it is not given here. [ ]: non-standard residue; d: D form. Phe(F5) = N[C@@H](Cc1c(F)c(F)c(F)c(F)c1F)C(=O)O; Phe(4-NH2) = Nc1ccc(C[C@H](N)C(=O)O)cc1; Bta = N[C@@H](Cc1csc2ccccc12)C(=O)O; 3Pal = N[C@@H](Cc1cccnc1)C(=O)O; 2Thi = N[C@@H](Cc1cccs1)C(=O)O; hCys = N[C@@H](CCS)C(=O)O; F(pg) = not defined here; Pra = C#CC[C@H](N)C(=O)O

B1: P2-88 (peptide)
peptide: DPCT[Phe(F5)]EVWGRECLQ
modifications: disulfide 3-12; not fully specified (N-terminus)
notes: P2 backbone; also called P2 with Pentafluoro Phenylalanine at W5
B2: P2-52 (peptide)
peptide: H-DP[hCys]TWEVWGRE[hCys]LQGG[Pra]G-NH2
modifications: disulfide 3-12
SMILES: C#CC[C@H](NC(=O)CNC(=O)CNC(=O)[C@H](CCC(N)=O)NC(=O)[C@H](CC(C)C)NC(=O)[C@@H]1CCSSCC[C@H](NC(=O)[C@@H]2CCCN2C(=O)[C@@H](N)CC(=O)O)C(=O)N[C@@H]([C@@H](C)O)C(=O)N[C@@H](Cc2c[nH]c3ccccc23)C(=O)N[C@@H](CCC(=O)O)C(=O)N[C@@H](C(C)C)C(=O)N[C@@H](Cc2c[nH]c3ccccc23)C(=O)NCC(=O)N[C@@H](CCCNC(=N)N)C(=O)N[C@@H](CCC(=O)O)C(=O)N1)C(=O)NCC(N)=O
B3: P2-35 (peptide)
peptide: H-DPCTWE[Pra]WGRECLQ-NH2
modifications: disulfide 3-12
SMILES: C#CC[C@@H]1NC(=O)[C@H](CCC(=O)O)NC(=O)[C@H](Cc2c[nH]c3ccccc23)NC(=O)[C@H]([C@@H](C)O)NC(=O)[C@@H](NC(=O)[C@@H]2CCCN2C(=O)[C@@H](N)CC(=O)O)CSSC[C@@H](C(=O)N[C@@H](CC(C)C)C(=O)N[C@@H](CCC(N)=O)C(N)=O)NC(=O)[C@H](CCC(=O)O)NC(=O)[C@H](CCCNC(=N)N)NC(=O)CNC(=O)[C@H](Cc2c[nH]c3ccccc23)NC1=O
B4: P2-8 (peptide)
peptide: DPCTWEVAGRECLQ
modifications: disulfide 3-12; not fully specified (N-terminus, C-terminus); also: C-terminal propargylglycine moiety
notes: also called P2 Ala scan, AA position 8
B5: P2-27 (peptide)
peptide: H-DPC[Pra]WEVWGRECLQ-NH2
modifications: disulfide 3-12
SMILES: C#CC[C@@H]1NC(=O)[C@@H](NC(=O)[C@@H]2CCCN2C(=O)[C@@H](N)CC(=O)O)CSSC[C@@H](C(=O)N[C@@H](CC(C)C)C(=O)N[C@@H](CCC(N)=O)C(N)=O)NC(=O)[C@H](CCC(=O)O)NC(=O)[C@H](CCCNC(=N)N)NC(=O)CNC(=O)[C@H](Cc2c[nH]c3ccccc23)NC(=O)[C@H](C(C)C)NC(=O)[C@H](CCC(=O)O)NC(=O)[C@H](Cc2c[nH]c3ccccc23)NC1=O
B6: P2-31 (peptide)
peptide: H-DPCTW[Pra]VWGRECLQ-NH2
modifications: disulfide 3-12
SMILES: C#CC[C@@H]1NC(=O)[C@H](Cc2c[nH]c3ccccc23)NC(=O)[C@H]([C@@H](C)O)NC(=O)[C@@H](NC(=O)[C@@H]2CCCN2C(=O)[C@@H](N)CC(=O)O)CSSC[C@@H](C(=O)N[C@@H](CC(C)C)C(=O)N[C@@H](CCC(N)=O)C(N)=O)NC(=O)[C@H](CCC(=O)O)NC(=O)[C@H](CCCNC(=N)N)NC(=O)CNC(=O)[C@H](Cc2c[nH]c3ccccc23)NC(=O)[C@H](C(C)C)NC1=O
B7: P2-70 (peptide)
peptide: DPCTFEVWGRECLQ
modifications: disulfide 3-12; not fully specified (N-terminus, C-terminus)
notes: P2 backbone; also called P2 with Phenylalanine at W5
B8: P2-74 (peptide)
peptide: DPCT[3Pal]EVWGRECLQ
modifications: disulfide 3-12; not fully specified (N-terminus)
notes: P2 backbone; also called P2 with 3-Pyridyl Alanine at W5
B9: P2-51 (peptide)
peptide: H-DP[hCys]TWEVWGRECLQGG[Pra]G-NH2
modifications: disulfide 3-12
SMILES: C#CC[C@H](NC(=O)CNC(=O)CNC(=O)[C@H](CCC(N)=O)NC(=O)[C@H](CC(C)C)NC(=O)[C@@H]1CSSCC[C@H](NC(=O)[C@@H]2CCCN2C(=O)[C@@H](N)CC(=O)O)C(=O)N[C@@H]([C@@H](C)O)C(=O)N[C@@H](Cc2c[nH]c3ccccc23)C(=O)N[C@@H](CCC(=O)O)C(=O)N[C@@H](C(C)C)C(=O)N[C@@H](Cc2c[nH]c3ccccc23)C(=O)NCC(=O)N[C@@H](CCCNC(=N)N)C(=O)N[C@@H](CCC(=O)O)C(=O)N1)C(=O)NCC(N)=O
B10: P2-91 (peptide)
peptide: DPCTWEV[Bta]GRECLQ
modifications: disulfide 3-12; not fully specified (N-terminus)
notes: P2 backbone; also called P2 with 3-Benzothienyl Alanine at W8
B11: P2-86 (peptide)
peptide: DPCT[Phe(4-NH2)]EVWGRECLQ
modifications: disulfide 3-12; not fully specified (N-terminus)
notes: P2 backbone; also called P2 with 4-Amino Phenylalanine at W5
B12: P2-90 (peptide)
peptide: DPCTXEVWGRECLQ
modifications: not fully specified; 3-Benzothienyl Alanine at 5; Cys3-Cys12 disulfide
notes: P2 backbone; also called P2 with 3-Benzothienyl Alanine at W5
B13: P2-92 (peptide)
peptide: DPCT[2Thi]EVWGRECLQ
modifications: disulfide 3-12; not fully specified (N-terminus)
notes: P2 backbone; also called P2 with 2-Thienyl Alanine at W5
B14: P2-53 (peptide)
peptide: DPCTWEVWGREXLQGGGG
modifications: free N-terminus; penicillamine (Pen) at 12, disulfide with Cys3; Par at 17; C-terminal amide
B15: P2-38 (peptide)
peptide: H-DPCTWETWGRECLQGG[Pra]G-NH2
modifications: disulfide 3-12
SMILES: C#CC[C@H](NC(=O)CNC(=O)CNC(=O)[C@H](CCC(N)=O)NC(=O)[C@H](CC(C)C)NC(=O)[C@@H]1CSSC[C@H](NC(=O)[C@@H]2CCCN2C(=O)[C@@H](N)CC(=O)O)C(=O)N[C@@H]([C@@H](C)O)C(=O)N[C@@H](Cc2c[nH]c3ccccc23)C(=O)N[C@@H](CCC(=O)O)C(=O)N[C@@H]([C@@H](C)O)C(=O)N[C@@H](Cc2c[nH]c3ccccc23)C(=O)NCC(=O)N[C@@H](CCCNC(=N)N)C(=O)N[C@@H](CCC(=O)O)C(=O)N1)C(=O)NCC(N)=O
B16: P2-40 (peptide)
peptide: H-DPCTWEVFGRECLQGG[Pra]G-NH2
modifications: disulfide 3-12
SMILES: C#CC[C@H](NC(=O)CNC(=O)CNC(=O)[C@H](CCC(N)=O)NC(=O)[C@H](CC(C)C)NC(=O)[C@@H]1CSSC[C@H](NC(=O)[C@@H]2CCCN2C(=O)[C@@H](N)CC(=O)O)C(=O)N[C@@H]([C@@H](C)O)C(=O)N[C@@H](Cc2c[nH]c3ccccc23)C(=O)N[C@@H](CCC(=O)O)C(=O)N[C@@H](C(C)C)C(=O)N[C@@H](Cc2ccccc2)C(=O)NCC(=O)N[C@@H](CCCNC(=N)N)C(=O)N[C@@H](CCC(=O)O)C(=O)N1)C(=O)NCC(N)=O
B17: P2-49 (peptide)
peptide: H-DPCTWEVWGRDCLQGG[Pra]G-NH2
modifications: disulfide 3-12
SMILES: C#CC[C@H](NC(=O)CNC(=O)CNC(=O)[C@H](CCC(N)=O)NC(=O)[C@H](CC(C)C)NC(=O)[C@@H]1CSSC[C@H](NC(=O)[C@@H]2CCCN2C(=O)[C@@H](N)CC(=O)O)C(=O)N[C@@H]([C@@H](C)O)C(=O)N[C@@H](Cc2c[nH]c3ccccc23)C(=O)N[C@@H](CCC(=O)O)C(=O)N[C@@H](C(C)C)C(=O)N[C@@H](Cc2c[nH]c3ccccc23)C(=O)NCC(=O)N[C@@H](CCCNC(=N)N)C(=O)N[C@@H](CC(=O)O)C(=O)N1)C(=O)NCC(N)=O
B18: P2-39 (peptide)
peptide: H-DPCTWEVAGRECLQGG[Pra]G-NH2
modifications: disulfide 3-12
SMILES: C#CC[C@H](NC(=O)CNC(=O)CNC(=O)[C@H](CCC(N)=O)NC(=O)[C@H](CC(C)C)NC(=O)[C@@H]1CSSC[C@H](NC(=O)[C@@H]2CCCN2C(=O)[C@@H](N)CC(=O)O)C(=O)N[C@@H]([C@@H](C)O)C(=O)N[C@@H](Cc2c[nH]c3ccccc23)C(=O)N[C@@H](CCC(=O)O)C(=O)N[C@@H](C(C)C)C(=O)N[C@@H](C)C(=O)NCC(=O)N[C@@H](CCCNC(=N)N)C(=O)N[C@@H](CCC(=O)O)C(=O)N1)C(=O)NCC(N)=O

Target: T1, Fc tagged recombinant human EGFR (rhEGFR-Fc, R&D systems, Cat#344-ER-050) (human, UniProt P00533 25-645)
T1 construct: Bought protein; also called apo-EGFR; not shown: Fc tag
Test: SPR
Procedure: Surface plasmon resonance (SPR) binding studies were carried out on a Biacore T200 instrument (GE Healthcare). […] The contact time and resulting amount of rhEGFR-Fc capture was varied based on the nature of the analyte, namely whether it was a peptide or nanoparticle.
Peptide binding assays were carried out in 10 mM PBS buffer supplemented with 0.05% surfactant P20 and 5% DMSO by volume, at 25° C. Peptides were injected over the rhEGFR-Fc surface for 60 s, followed by dissociation (buffer injection) for 60 s and regeneration with a 10 s pulse of 3M MgCl₂. A fresh rhEGFR-Fc surface was generated for each concentration of each peptide tested. Peptide binding data was analyzed by fitting to a 1:1 Langmuir kinetic model to obtain the on-rate (kₐ), off-rate (kd) and/or equilibrium binding constant (KD) of the interaction.

Binder | binding result | KD Relative to P2 [ratio] | Result (affinity relative to KD of P2) [ratio] | KD/P2 KD [ratio]
H-GGDPETWEVWGREKLQGG[Pra]G-NH2 (lactam 5-14) [P2-67] | binds | – | – | –
B1 | – | 8.5 | – | –
DPXTWEVWGRECLQGGGG (free N-terminus; Pen at 3, disulfide with Cys12; Par at 17; C-terminal amide) [P2-54] | – | – | 4.78 | –
B2 | – | – | 14 | –
DPATWEVWGRECLQ-{propargyl glycine moiety (p-0168)} (not fully specified (N-terminus), also called P2 Ala scan, AA position 3) [P2-3] | no binding | – | – | –
B3 | – | – | – | 5.69
B4 | no binding | – | – | –
Ac-DPCTWEVWGREALQ (also: C-terminal propargylglycine moiety, not placed, also called P2 Ala scan, AA position 12) [P2-12] | no binding | – | – | –
B5 | – | – | – | 5.4
B6 | – | – | – | 0.86
B7 | – | 9.24 | – | –
B8 | – | 11.8 | – | –
B9 | – | – | 8.88 | –
B10 | – | 124 | – | –
B11 | – | 9 | – | –
DPXTWEVWGREXLQGGGG (free N-terminus; Pen at 3 and 12, disulfide; Par at 17; C-terminal amide, also called PenPen analog) [P2-55 (free-ligand series, GG-Par-G tail)] | – | – | 1.18 | –
B12 | – | 1.6 | – | –
B13 | – | 15.9 | – | –
B14 | – | – | 2.64 | –
B15 | – | – | – | 12.3
B16 | binds | – | – | –
H-DPCTWEVWG[F(pg)]ECLQGG[Pra]G-NH2 (disulfide 3-12; reading uncertain) [P2-47] | – | – | – | 37.1
B17 | – | – | – | 3.39
H-DPCTWEVWGKECLQGG[Pra]G-NH2 (disulfide 3-12) [P2-46] | – | – | – | 13.9
H-DPCTWEVWGAECLQGG[Pra]G-NH2 (disulfide 3-12) [P2-45] | binds | – | – | –
B18 | no binding | – | – | –
